Source: publication PMC7719794

Target: chicken CD8αα homodimer (chicken)
Assay: crystal structure; sitting-drop vapour diffusion at 291 K, 10 mg/ml; cCD8αα and pMHC-I mixed at a 2:1 molar ratio at 277 K overnight; three crystals: pBF2*1501, cCD8αα/pBF2*1501, cCD8αα/pBF2*0401; two complexes (A and B) in the asymmetric unit of each co-crystal

- stoichiometry N: 2
Substance: chicken CD8αα homodimer (receptor)
